Measured values taken from patent publication US4614714A.

Substrate: N[C@@H](CC(=O)O)C(=O)O
Experiment: purified protein, by the assay type
Details: other: pH 7.4, 30.0 °C
Method: The concentration of each substrate was 10 mM, and the reactions were carried out at pH 7.4 (0.1 M potassium phosphate buffer) and pH 6.0 (0.1 M acetate buffer).
That is, 1 ml of 0.1 M potassium phosphate buffer (pH 7.4) containing 10 mM sodium L-glutamate was charged into an oxygen electrode cell and 10 μl of an enzyme solution was added thereto to measure the oxygen consumption rate. One unit of enzyme was determined as the amount of enzyme which consumes 1μ mol of oxygen per minute at 30° C. in the absence of catalase (unit: hereinafter abbreviated as "U").

B1: novel L-glutamic acid oxidase (Streptomyces sp.) (protein)
chain 1: ANEMTYEQLARELLLVGPAPTNEDLKLRYLDVLIDNGLNPPGPPKRILIVGAGIAGLVAGDLLTRAGHDVTILEANANRVGGRIKTFHAKKGEPSPFADPAQYAEAGAMRLPSFHPLTLALIDKLGLKRRLFFNVDIDPQTGNQDAPVPPVFYKSFKDGKTWTNGAPSPEFKEPDKRNHTWIRTNREQVRRAQYATDPSSINEGFHLTGCETRLTVSDMVNQALEPVRDYYSVKQDDGTRVNKPFKEWLAGWADVVRDFDGYSMGRFLREYAEFSDEAVEAIGTIENMTSRLHLAFFHSFLGRSDIDPRATYWEIEGGSRMLPETLAKDLRDQIVMGQRMVRLEYYDPGRDGHHGELTGPGGPAVAIQTVPEGEPY
chain 2: AATQTWTGDLAIVTIPFSSLRFVKVTPPFSYKKRRAVIETHYDQATKVLLEFSRRWWEFTEADWKRELDAIAPGLYDYYQQWGEDDAEAALALPQSVRNLPTGLLGAHPSVDESRIGEEQVEYYRNSELR
chain 3: GGVRPATNAYGGGSTTDNPNRFMYYPSHPVPGTQGGVVLAAYSWSDDAARWDSFDDAERYGYALENLQSVHGRRIEVFYTGAGQTQSWLRDPYACGEAAVYTPHQMTAFHLDVVRPEGPVYFAGEHVSLKHAWIEGAVETAVRAAIAVNEAPVGDTGVTAAAGRRGAAAATEPMREEALTS
Q: For B1, which Km is on record?
A: 29 mM
